The source of these data is paper PMC8534323, “Proteinous Components of Neutrophil Extracellular Traps Are Arrested by the Cell Wall Proteins of Candida albicans during Fungal Infection, and Can Be Used in the Host Invasion” (Cells, 2021).

B3: Als3 (agglutinin-like sequence protein 3), isolated from the surface of C. albicans (natural protein)
chain: KTITGVFNSFNSLTWSNAATYNYKGPGTPTWNAVLGWSLDGTSASPGDTFTLNMPCVFKFTTSQTSVDLTAHGVKYATCQFQAGEEFMTFSTLTCTVSNTLTPSIKALGTVTLPLAFNVGGTGSSVDLEDSKCFTAGTNTVTFNDGGKKISINVDFERSNVDPKGYLTDSRVIPSLNKVSTLFVAPQCANGYTSGTMGFANTYGDVQIDCSNIHVGITKGLNDWNYPVSSESFSYTKTCSSNGIFITYKNVPAGYRPFVDAYISATDVNSYTLSYANEYTCAGGYWQRAPFTLRWTGYRNSDAGSNGIVIVATTRTVTDSTTAVTTLPFDPNRDKTKTIEILKPIPTTTITTSYVGVTTSYSTKTAPIGETATVIVDIPYHTTTTVTSKWTGTITSTTTHTNPTDSIDTVIVQVPSPNPTVTTTEYWSQSFATTTTITGPPGNTDTVLIREPPNHTVTTTEYWSESYTTTSTFTAPPGGTDSVIIKEPPNPTVTTTEYWSESYTTTTTVTAPPGGTDTVIIREPPNHTVTTTEYWSQSYTTTTTVIAPPGGTDSVIIREPPNPTVTTTEYWSQSYATTTTITAPPGETDTVLIREPPNHTVTTTEYWSQSYATTTTITAPPGETDTVLIREPPNHTVTTTEYWSQSYTTTTTVIAPPGGTDSVIIKEPPNPTVTTTEYWSQSYATTTTITAPPGETDTVLIREPPNHTVTTTEYWSQSYATTTTITAPPGETDTVLIREPPNHTVTTTEYWSQSFATTTTVTAPPGGTDTVIIREPPNHTVTTTEYWSQSFATTTTIIAPPGETDTVLIREPPNPTVTTTEYWSQSYTTATTVTAPPGGTDTVIIYDTMSSSEISSFSRPHYTNHTTLWSTTWVIETKTITETSCEGDKGCSWVSVSTRIVTIPNNIETPMVTNTVDTTTTESTLQSPSGIFSESGVSVETESSTFTTAQTNPSVPTTESEVVFTTKGNNGNGPYESPSTNVKSSMDENSEFTTSTAASTSTDIENETIATTGSVEASSPIISSSADETTTVTTTAESTSVIEQQTNNNGGGNAPSATSTSSPSTTTTANSDSVITSTTSTNQSQSQSNSDTQQTTLSQQMTSSLVSLHMLTTFDGS
notes: source: purified from C. albicans ATCC 10231 hyphae cell wall extract (β-1,3-glucanase and 2-mercaptoethanol; MonoQ, Superdex-200)

Holding throughout (settings): both partners purified
One experiment concerns the target histone H4 (human, UniProt P62805 1-103). Briefly: ELISA-like microplate ligand-binding assay.
Another experiment concerns the target T1, lactotransferrin (LF) (human, UniProt P02788 20-710, NHS-fluorescein label in flow cytometry; sulfo-SBED crosslinker in the cross-linking experiment).
T1 construct: also called lactoferrin; source: bought: Sigma
Briefly: SPR. For orientation: In SPR one partner is held on a chip, and binding of the other changes the refractive index at the surface.

Experiment [1] concerns the target B3. Briefly: SPR.

T1 sequence (P02788 20-710): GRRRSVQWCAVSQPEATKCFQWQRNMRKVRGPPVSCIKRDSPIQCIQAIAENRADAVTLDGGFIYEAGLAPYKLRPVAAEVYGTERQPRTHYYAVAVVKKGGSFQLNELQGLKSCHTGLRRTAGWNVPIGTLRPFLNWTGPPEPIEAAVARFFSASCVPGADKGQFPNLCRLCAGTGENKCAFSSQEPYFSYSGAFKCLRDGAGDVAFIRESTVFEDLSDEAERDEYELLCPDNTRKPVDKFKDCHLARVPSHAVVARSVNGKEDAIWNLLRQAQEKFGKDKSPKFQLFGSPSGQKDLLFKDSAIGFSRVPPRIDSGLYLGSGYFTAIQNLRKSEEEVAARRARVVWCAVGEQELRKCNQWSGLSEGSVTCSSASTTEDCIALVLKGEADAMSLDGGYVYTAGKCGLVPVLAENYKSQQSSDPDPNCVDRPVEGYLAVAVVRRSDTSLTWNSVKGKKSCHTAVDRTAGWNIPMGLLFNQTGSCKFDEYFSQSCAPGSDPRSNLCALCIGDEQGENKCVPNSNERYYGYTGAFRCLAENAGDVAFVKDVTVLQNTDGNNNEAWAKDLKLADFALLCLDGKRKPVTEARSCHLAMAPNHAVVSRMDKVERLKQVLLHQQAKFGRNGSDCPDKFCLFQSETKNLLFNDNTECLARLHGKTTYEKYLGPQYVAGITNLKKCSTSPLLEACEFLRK

B1: Phosphoglycerate mutase 1 (Gpm1), recombinant (enzyme)
chain: MPKLVLVRHGQSEWNEKNLFTGWVDVRLSETGQKEAKRAGELLKEAGINVDVLHTSKLSRAIQTANIALDAADQLYVPVKRSWRLNERHYGALQGKDKAQTLEAYGQEKFQIWRRSFDVPPPKIDPKDEYSQVGDRRYADVDPAVVPLTESLALVIDRLLPYWQDEIAGDLLAGKVVLIAAHGNSLRALVKHLDNISDEDIAGLNIPTGIPLVYELDENLKPTKPSYYLDPEAAAAGAAAVAAQGQKK
In the case of B1, in the experiment with histone H4, the Kd (as a rule, the concentration at which binding is half-saturated) was determined as 1900 ± 414 nM.

B2: enolase (Eno1) (enzyme)
chain: MSYATKIHARYVYDSRGNPTVEVDFTTDKGLFRSIVPSGASTGVHEALELRDGDKSKWLGKGVLKAVANVNDIIAPALIKAKIDVVDQAKIDEFLLSLDGTPNKSKLGANAILGVSLAAANAAAAAQGIPLYKHIANISNAKKGKFVLPVPFQNVLNGGSHAGGALAFQEFMIAPTGVSTFSEALRIGSEVYHNLKSLTKKKYGQSAGNVGDEGGVAPDIKTPKEALDLIMDAIDKAGYKGKVGIAMDVASSEFYKDGKYDLDFKNPESDPSKWLSGPQLADLYEQLISEYPIVSIEDPFAEDDWDAWVHFFERVGDKIQIVGDDLTVTNPTRIKTAIEKKAANALLLKVNQIGTLTESIQAANDSYAAGWGVMVSHRSGETEDTFIADLSVGLRSGQIKTGAPARSERLAKLNQILRIEEELGSEAIYAGKDFQKASQL
notes: source: purified from the cytosolic fraction of C. albicans cells (MonoQ, MonoS); for cross-linking: endogenous, in the cell wall protein extract of C. albicans hyphae
Regarding B2, binding in the experiment with histone H4 was put at a Kd of 384 ± 130 nM. On the same count and under the same terms, the same measure for B3: 820 ± 330 nM.

B4: triosephosphate isomerase 1 (Tpi1) (enzyme, UniProt Q9P940 1-248, looked up)
chain: MARQFFVGGNFKANGTKQQITSIIDNLNKADLPKDVEVVICPPALYLGLAVEQNKQPTVAIGAQNVFDKSCGAFTGETCASQILDVGASWTLTGHSERRTIIKESDEFIAEKTKFALDTGVKVILCIGETLEERKGGVTLDVCARQLDAVSKIVSDWSNIVVAYEPVWAIGTGLAATPEDAEETHKGIRAHLAKSIGAEQAEKTRILYGGSVNGKNAKDFKDKANVDGFLVGGASLKPEFVDIIKSRL
notes: source: purified from C. albicans ATCC 10231 hyphae cell wall extract (MonoQ, Superdex-200); for cross-linking: endogenous, in that extract
Take B4: in the experiment with lactotransferrin (LF), the Kd was 163 ± 0.2 nM.

B5: human neutrophil elastase (HNE) (enzyme, UniProt P08246 30-267, looked up)
chain: IVGGRRARPHAWPFMVSLQLRGGHFCGATLIAPNFVMSAAHCVANVNVRAVRVVLGAHNLSRREPTRQVFAVQRIFENGYDPVNLLNDIVILQLNGSATINANVQVAQLPAQGRRLGNGVQCLAMGWGLLGRNRGIASVLQELNVTVVTSLCRRSNVCTLVRGRQAGVCFGDSGSPLVCNGLIHGIASFVRGGCASGLYPDAFAPVAQFVNWIDSIIQRSEDNPCPHPRDPDPASRTH
modifications: sulfo-SBED crosslinker in the cross-linking experiment; in flow cytometry preincubated or not with 10 µM N-(Methoxysuccinyl)-Ala-Ala-Pro-Val-chloromethyl ketone
notes: source: bought: Biocentrum (Kraków, Poland)
B5 returned a Kd in experiment [1] of 65 ± 5.3 nM.
